Measurements published in publication PMC6100179, “Kinetic Basis of the Bifunctionality of SsoII DNA Methyltransferase”.

Legend:
M.SsoII (monomer on DNA) [1] = target: T1, M.SsoII (monomer on DNA) (UniProt P34879 1-379); assay: stopped-flow fluorescence anisotropy; 100 uM AdoMet; k1 390 uM-1 s-1, k-1 88 s-1, k2 1.13 s-1, k-2 9.6 s-1; EMSA: 50 mM Tris-HCl pH 7.5, 100 mM NaCl, 5 mM beta-mercaptoethanol, 0.1 mg/mL BSA, 25% glycerol, 100 uM AdoHcy, 37 C then room temperature, 2.5 nM DNA; stopped-flow: 50 mM Tris-HCl pH 7.5, 100 mM NaCl, 5 mM beta-mercaptoethanol, 25 C, 100 nM DNA; conditions: protein: recombinant; tags: N-terminal His-tag MRGS(H)6TDPLETC; label: TAMRA (position 5)
T1 sequence: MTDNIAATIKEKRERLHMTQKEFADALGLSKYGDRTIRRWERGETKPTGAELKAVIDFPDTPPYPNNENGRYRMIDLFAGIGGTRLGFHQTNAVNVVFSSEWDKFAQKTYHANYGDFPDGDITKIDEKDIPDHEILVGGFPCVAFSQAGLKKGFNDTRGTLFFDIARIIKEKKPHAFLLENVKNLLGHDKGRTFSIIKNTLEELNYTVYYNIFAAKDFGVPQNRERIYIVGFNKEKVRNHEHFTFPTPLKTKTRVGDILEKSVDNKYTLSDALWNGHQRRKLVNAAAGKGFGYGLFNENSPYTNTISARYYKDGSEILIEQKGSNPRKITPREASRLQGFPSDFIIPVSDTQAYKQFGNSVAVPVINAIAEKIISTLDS

[2] = target: T2, M.SsoII (two subunits on DNA) (UniProt P34879 1-379); assay: EMSA; 100 uM AdoHcy; C1 and C2; EMSA: 50 mM Tris-HCl pH 7.5, 100 mM NaCl, 5 mM beta-mercaptoethanol, 0.1 mg/mL BSA, 25% glycerol, 100 uM AdoHcy, 37 C then room temperature, 2.5 nM DNA; stopped-flow: 50 mM Tris-HCl pH 7.5, 100 mM NaCl, 5 mM beta-mercaptoethanol, 25 C, 100 nM DNA; conditions: protein: recombinant; tags: N-terminal His-tag MRGS(H)6TDPLETC; chain copies: 2; label: TAMRA (position 5)
T2 sequence: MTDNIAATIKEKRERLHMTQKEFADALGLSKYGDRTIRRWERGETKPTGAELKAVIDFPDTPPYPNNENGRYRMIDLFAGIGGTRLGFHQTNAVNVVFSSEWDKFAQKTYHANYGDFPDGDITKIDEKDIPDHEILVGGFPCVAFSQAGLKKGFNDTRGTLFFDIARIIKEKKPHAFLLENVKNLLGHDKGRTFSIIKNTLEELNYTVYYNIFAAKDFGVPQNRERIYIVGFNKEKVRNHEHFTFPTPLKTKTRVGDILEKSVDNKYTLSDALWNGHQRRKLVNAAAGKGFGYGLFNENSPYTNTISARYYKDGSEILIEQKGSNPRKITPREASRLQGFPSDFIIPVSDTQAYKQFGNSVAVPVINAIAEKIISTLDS

[3] = target: T2, M.SsoII (two subunits on DNA); assay: EMSA; 100 uM AdoHcy; cooperative, C2 much more than C1; EMSA: 50 mM Tris-HCl pH 7.5, 100 mM NaCl, 5 mM beta-mercaptoethanol, 0.1 mg/mL BSA, 25% glycerol, 100 uM AdoHcy, 37 C then room temperature, 2.5 nM DNA; stopped-flow: 50 mM Tris-HCl pH 7.5, 100 mM NaCl, 5 mM beta-mercaptoethanol, 25 C, 100 nM DNA; conditions: protein: recombinant; tags: N-terminal His-tag MRGS(H)6TDPLETC; chain copies: 2; label: TAMRA (internal, on dU C5, position 5)
M.SsoII (monomer on DNA) [4] = target: T1, M.SsoII (monomer on DNA); assay: stopped-flow fluorescence anisotropy; 100 uM AdoHcy; k1 352 uM-1 s-1, k-1 71 s-1, k2 2.30 s-1, k-2 12.8 s-1; EMSA: 50 mM Tris-HCl pH 7.5, 100 mM NaCl, 5 mM beta-mercaptoethanol, 0.1 mg/mL BSA, 25% glycerol, 100 uM AdoHcy, 37 C then room temperature, 2.5 nM DNA; stopped-flow: 50 mM Tris-HCl pH 7.5, 100 mM NaCl, 5 mM beta-mercaptoethanol, 25 C, 100 nM DNA; conditions: protein: recombinant; tags: N-terminal His-tag MRGS(H)6TDPLETC; label: TAMRA (internal, on dU C5, position 5)
[5] = target: T2, M.SsoII (two subunits on DNA); assay: EMSA; 100 uM AdoHcy; C2* above 2:1 protein/DNA, second molecule presumably nonspecific; EMSA: 50 mM Tris-HCl pH 7.5, 100 mM NaCl, 5 mM beta-mercaptoethanol, 0.1 mg/mL BSA, 25% glycerol, 100 uM AdoHcy, 37 C then room temperature, 2.5 nM DNA; stopped-flow: 50 mM Tris-HCl pH 7.5, 100 mM NaCl, 5 mM beta-mercaptoethanol, 25 C, 100 nM DNA; conditions: protein: recombinant; tags: N-terminal His-tag MRGS(H)6TDPLETC; chain copies: 2; label: TAMRA
M.SsoII (monomer on DNA) [6] = target: T1, M.SsoII (monomer on DNA); assay: stopped-flow fluorescence anisotropy; 100 uM AdoHcy; k1 226 uM-1 s-1, k-1 158 s-1, k2* 0.22 s-1, k-2* 0.50 s-1; EMSA: 50 mM Tris-HCl pH 7.5, 100 mM NaCl, 5 mM beta-mercaptoethanol, 0.1 mg/mL BSA, 25% glycerol, 100 uM AdoHcy, 37 C then room temperature, 2.5 nM DNA; stopped-flow: 50 mM Tris-HCl pH 7.5, 100 mM NaCl, 5 mM beta-mercaptoethanol, 25 C, 100 nM DNA; conditions: protein: recombinant; tags: N-terminal His-tag MRGS(H)6TDPLETC; label: TAMRA (bottom 33 or 35)
M.SsoII (monomer on DNA) [7] = target: T1, M.SsoII (monomer on DNA); assay: stopped-flow fluorescence anisotropy; 100 uM AdoHcy; k1 181 uM-1 s-1, k-1 143 s-1, k2* 0.40 s-1, k-2* 1.5 s-1; EMSA: 50 mM Tris-HCl pH 7.5, 100 mM NaCl, 5 mM beta-mercaptoethanol, 0.1 mg/mL BSA, 25% glycerol, 100 uM AdoHcy, 37 C then room temperature, 2.5 nM DNA; stopped-flow: 50 mM Tris-HCl pH 7.5, 100 mM NaCl, 5 mM beta-mercaptoethanol, 25 C, 100 nM DNA; conditions: protein: recombinant; tags: N-terminal His-tag MRGS(H)6TDPLETC; label: TAMRA (top 25 or bottom 33/35)
M.SsoII (monomer on DNA) [8] = target: T1, M.SsoII (monomer on DNA); assay: stopped-flow fluorescence anisotropy; 100 uM AdoMet; k1 386 uM-1 s-1, k-1 154 s-1, k2 0.68 s-1, k-2 6.5 s-1; EMSA: 50 mM Tris-HCl pH 7.5, 100 mM NaCl, 5 mM beta-mercaptoethanol, 0.1 mg/mL BSA, 25% glycerol, 100 uM AdoHcy, 37 C then room temperature, 2.5 nM DNA; stopped-flow: 50 mM Tris-HCl pH 7.5, 100 mM NaCl, 5 mM beta-mercaptoethanol, 25 C, 100 nM DNA; conditions: protein: recombinant; tags: N-terminal His-tag MRGS(H)6TDPLETC; label: TAMRA (position 21)

B1: 60reg-2 (dsDNA)
DNA 1: ACGTTCATAATTGGAATCTTTTCAGGACAAATTGTCCTTTTTCCAACACTTAATTCTGGT
DNA 2: ACCAGAATTAAGTGTTGGAAAAAGGACAATTTGTCCTGAAAAGATTCCAATTATGAACGT
- binding result (M.SsoII (monomer on DNA) [1]): binds
- binding result [2]: binds

B2: 60reg-3 (dsDNA)
DNA 1: ACGTTCATAATTGGAATCTGCTCAGGACAAATTGTCCTTGCTCCAACACTTAATTCTGGT
DNA 2: ACCAGAATTAAGTGTTGGAGCAAGGACAATTTGTCCTGAGCAGATTCCAATTATGAACGT
- binding result [2]: binds

B3: 60reg-1 (dsDNA)
DNA 1: ACGTTCATAATTGGAATCAAAACAGGACAAATTGTCCTAAAACCAACACTTAATTCTGGT
DNA 2: ACCAGAATTAAGTGTTGGTTTTAGGACAATTTGTCCTGTTTTGATTCCAATTATGAACGT
- binding result [3]: binds
- binding result (M.SsoII (monomer on DNA) [4]): binds

B4: 60half-1 (dsDNA)
DNA 1: ACGTTCATAATTGGAATCAAAACAGGACAAACATTATCAAAACCAACACTTAATTCTGGT
DNA 2: ACCAGAATTAAGTGTTGGTTTTGATAATGTTTGTCCTGTTTTGATTCCAATTATGAACGT
- binding result [5]: binds

B5: 60half-2 (dsDNA)
DNA 1: ACGTTCATAATTGGAATCAAAACCATTATCATTGTCCTAAAACCAACACTTAATTCTGGT
DNA 2: ACCAGAATTAAGTGTTGGTTTTAGGACAATGATAATGGTTTTGATTCCAATTATGAACGT
- binding result [5]: binds

B6: 60met-mC (dsDNA)
DNA 1: GACTTACAGTTGATAGTATGAAGCTAGAGCCAGGTTGGCAGCATTCTACTCATGTACTTG
DNA 2: CAAGTACATGAGTAGAATGCTGCCAACCTGGCTCTAGCTTCATACTATCAACTGTAAGTC
modifications: 5-methylcytosine in top strand of methylation site
- binding result (M.SsoII (monomer on DNA) [6]): binds

B7: 60met (dsDNA)
DNA 1: GACTTACAGTTGATAGTATGAAGCTAGAGCCAGGTTGGCAGCATTCTACTCATGTACTTG
DNA 2: CAAGTACATGAGTAGAATGCTGCCAACCTGGCTCTAGCTTCATACTATCAACTGTAAGTC
- binding result (M.SsoII (monomer on DNA) [7]): binds

B8: 60reg-4 (dsDNA)
DNA 1: GAAAGTTTTTTCATGCACGTTCATAATTGGAATCAAAACAGGACAAATTGTCCTAAAACC
DNA 2: GGTTTTAGGACAATTTGTCCTGTTTTGATTCCAATTATGAACGTGCATGAAAAAACTTTC
- binding result (M.SsoII (monomer on DNA) [8]): binds
